Measured values from the supplement of paper PMC9170038.

System: MS2 coat protein
Test: apparent KD of MS2 coat protein; designed switch direction (-1 OFF switch, 1 ON switch): -1; higher = weaker reporter binding
Summary of the method: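 Apparent KD, taken as the median over clusters for each design, was obtained by curve-fitting normalised cluster fluorescence. Designed RNA switches had been transcribed on Illumina chips by stalled E. coli RNA polymerase and titrated with SNAP-549-labelled MS2 coat protein, doubling from 0.7 or 1.5 nM to 3 µM.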

[1] = Eterna round: R95, input ligand: FMN 200 uM
[2] = Eterna round: R95, input ligand: microRNA oligo, concentration not stated
[3] = Eterna round: R95, input ligand: none
[4] = input ligand: microRNA oligo, concentration not stated

Sequence	apparent KD of MS2 coat protein [1]	apparent KD of MS2 coat protein [2]	apparent KD of MS2 coat protein [3]	apparent KD of MS2 coat protein (input ligand: FMN 200 uM)	apparent KD of MS2 coat protein (input ligand: none)	apparent KD of MS2 coat protein [4]
AAGAAACAUGAGGAUCACCCAUGUGAGGAUAUGAGCAAGAAAAGAAAAGAAAGAAGAAUCAGAAGGCACAAAGG [salish99-ex1_r3_050] (puzzle: Exclusion 1)	6990 nM	1.1 nM	49.3 nM	–	–	–
AAGAAACAUGAGGAUCACCCAUGUGAGGAUAUGAGCACGCCGGUGACGGUGAUAAGAAUCAGAAGGCACAAAGG [JL-ex1-4.34 salish99 mod] (Eterna round: R97, puzzle: Exclusion 1)	–	–	–	93 nM	77.8 nM	–
AAGAAACAUGAGGAUCACCCAUGUGAGGAUAUGAGUAAGAAAAGAAAAGAAAGAAGACUCAGAAGGCACAAAGG [salish99-ex1_r3_074] (puzzle: Exclusion 1)	135 nM	110 nM	86.8 nM	–	–	–
AAGAAACAUGAGGAUCACCCAUGUGAGGAUAUGUAAAAUAAAAGAAAAGAAAUAAUAAACAGAAGGCACAAAGG [Mat - Mod of Hog D15] (puzzle: Exclusion 1)	52.1 nM	30.9 nM	41.4 nM	–	–	–
AAGAAACAUGAGGAUCACCCAUGUGAGGAUAUGUAAAAUAAAAGAAAAUAAAGAAGAAACAGAAGGCACAAAGG [Mat - Mod of Hog D22] (puzzle: Exclusion 1)	40.3 nM	36.1 nM	33.7 nM	–	–	–
AAGAAAGAGUUAGGAUAUACAUGAGGAUCACCCAUGUGGUGGUAAAUCCGCUGGGUCGGUUCGAUGUAGAAGGAACAACCGCCG [Inisinlaon] (Eterna round: R96, puzzle: Exclusion NG 2)	–	–	–	281 nM	68.3 nM	18.7 nM
AAGAACGUAGGAUAUACAUGAGGAUCACCCAUGUGAGGAAGGAGUAGGAAGUGUGGAAGUAGAAGGACGGAGAG [JR_Exclu3_Sub076] (puzzle: Exclusion 3)	31.5 nM	35.4 nM	33.8 nM	–	–	–
AAGAAGAAACAAGCUUUUUGCACGUCAUAUAGUGACGCAACAUGAGGAUCACCCAUGUAUAGGGUGGGAAAGGAUAG [JR_SV3TOV2_Sub047] (Eterna round: R96, puzzle: Sensor v3, turn-off variant 2)	–	–	–	669 nM	826 nM	352 nM
AAGAAGAAACAAGCUUUUUGCACGUCAUAUAGUGACGCAACAUGAGGAUCACCCAUGUAUAGGGUGGGAAAGGAUAG [JR_SV3TOV2_Sub047] (puzzle: Sensor v3, turn-off variant 2)	338 nM	70 nM	423 nM	–	–	–
AAGAAGAUCAGAGGAUAUGGAGCUGAAACGGCGCUAGAAGGCUGUCUAGUGUAACAUGAGGAUCACCCAUGUAGGGACCUCUAA [EX ng 1 4.3] (Eterna round: R96, puzzle: Exclusion NG 1)	–	–	–	874 nM	884 nM	795 nM
AAGAAGCGAGGAUAUACAUGAGGAUCACCCAUGUACCUCAUAAAGAAAAGAAAAGAAAGUAGAAGGCGCAAAAG [Default title] (puzzle: Exclusion 3)	24.2 nM	23.1 nM	18.4 nM	–	–	–
AAGAAGCUAGGAUAUCACACUGACAACAUGAGGAUCACCCAUGUAGGUGAUCGGUUAGCUUGAGAAGGAGCGGAGG [Laedanes] (puzzle: Exclusion 5)	83.5 nM	46.9 nM	78.3 nM	–	–	–
AAGAAGUCAGGAUAUACAUGAGGAUCACCCAUGUAAAAGAAAGAAAAGGGAAAGAAAAGUAGAAGGGACAAGAA [Menkheperre Thutmose III] (Eterna round: R96, puzzle: Exclusion 3)	–	–	–	22.9 nM	27.2 nM	21.8 nM
AAGAAUCGCAAUACGAAUAAGCAAUACGAACAAUAGCAAACAUGAGGAUCACCCAUGUCAAGGGUGACAACGCUCUA [JR_Sensorv2_tov2_Sub107] (Eterna round: R96, puzzle: Sensor v2, turn-off variant 2)	–	–	–	173 nM	862 nM	61.2 nM
